{"source": "patent US20250043302A1", "about": "“MUTATED HYDROXYPHENYLPYRUVATE DIOXYGENASE POLYPEPTIDE, AND CODING GENE AND USE THEREOF” (BEIJING DABEINONG BIOTECHNOLOGY CO., LTD., priority 2021, published 2025)", "molecules": {"B1": {"name": "NtHPPDm-F372A-F383W-02: nucleotide sequence encoding Nicotiana tabacum HPPD with F372A+F383W; vector DBN11753 (nucleic acid)", "DNA": "ATGGGGAAGCTGGAAACCGTCACTACCACCTCGGCGGCGGCTGCTGATGATTCATCGGAATTAACAACCAACTTCAAGTTGGTTGGTTTCAAAAATTTCATCAGAACAAACCCAAGGTCTGATTTCTTCTCCGTCAAGAGCTTCCACCACATTGAATTCTGGTGCGGTGACGCAACTAACACAGCGCGCCGCTTCTCATGGAGCCTAGGGATGCCAATTGCAGCTAAGAGTGATCTTTCAACAGGAAACAGCGTGCACGCCTCCTACCTCCTCCGGCCCGTAAGCGGTTCTTTACAGTTCCTGTTTACAGCACCATATTCACCTTCTATTTCGACTCCTAGTTCAGCTGCAATCCCATCTTTTTCCACATCTACACATAGGTCTTTCACTACAACACATGGACTGGGTGTTCGTGCCGTCGCCCTCGAGGTGGAGAATGCTTATACTGCCTTCAGTGCTTCTGTCTCCAGAGGCGCCAAGCCAATGTTTGAACCTGTGACAATTGATGAACAAGTAGCAATGGCTGAGGTTCATTTGTACGGCGATGTTGTGCTGCGATTTGTTTCTTATCTCAAGGACGCCGACAACCTGGTCTTCCTGCCGGGGTTTGAGGCCATGGATGAAACTGCTAGTTACAAAGAACTTGATTATGGAATACGGCGTTTGGATCATGCTGTGGGCAATGTTCCAGAACTCGGCCCGGTAGTTGATTACATCAAGAGGTTTACTGGATTTCATGAATTTGCAGAGTTTACCGCTGAAGATGTGGGAACTGCGGAAAGTGGGCTAAACTCCATGGTTCTTGCGAACAATGATGAGACTGTGCTCCTCCCTCTGAATGAGCCTGTTTATGGCACCAAAAGAAAATCTCAGATACAAACATATCTTGAGCATAATGAAGGAGCTGGGGTGCAGCACCTTGCTCTTGTTACTGAAGACATCTTTAAGACTTTGACAGAGATGAGGAAGAGAAGTGGAGTTGGAGGTTTTGAGTTCATGCCTTCCCCCCCGCCGACCTACTACAAGAATTTGAAGAACAGGGCTGGTGACGTCCTCTCAGACGAGCAGATTTTGGCTTGTGAGGAGCTTGGCATCTTGGTAGACCGGGACGACCAGGGGACGCTTCTCCAAATTGCCACAAAACCCGTCGGGGACCGCCCCACCATATGGATTGAGATCATCCAGAGGATAGGCTGCATGCTTAAAGATGGAAAAGGTCAAGTGTACCAGAAGGGTGGTTGTGGTGGGTTTGGCAAAGGAAATTTTTCTGAGCTGTTCAGAAGCATAGAAGAATATGAGAAGACACTGGAAGCAAAACAAGCAAATCAAGTTGCGGCCGCGTGA", "modifications": "NtHPPDm-F372A-F383W-02 Nucleotide Sequence", "notes": "vector DBN11753"}}, "assay_type_in_all_cases": "in vivo", "key": {"[1]": {"test_system": "Arabidopsis thaliana T1 plants", "test": "Topramezone tolerance of transgenic Arabidopsis thaliana T1 plants (spray, bleached leaf area grade, damage score)", "conditions": "7 DAT, Table 4; for Classification and statistics of the grade of pesticide damage: Grade 0 / Classification and statistics of the grade of pesticide damage: Grade 1 / Classification and statistics of the grade of pesticide damage: Grade 2 / Classification and statistics of the grade of pesticide damage: Grade 3: number of plants; for Scores: pesticide damage score 0-100", "summary_of_the_method": "(§1)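 Read-out: per-plant damage grade 0–3 from proportion of bleached leaf area at 7 DAT (1 <50%, 2 >50%, 3 100%). Plants were T1 transformants, glufosinate-selected, plus wild-type CK, sprayed 18 days post-sowing. Rates: topramezone 25–200, isoxaflutole 35–280, mesotrione 52.5–420 g ai/ha.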"}, "[2]": {"test_system": "Arabidopsis thaliana T1 plants", "test": "Mesotrione tolerance of transgenic Arabidopsis thaliana T1 plants (spray, bleached leaf area grade, damage score)", "parameters": "Scores: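 damage score 0-100 computed as Σ(N×S)/(T×M)×100 over grades 0-3 with higher meaning more damage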", "conditions": "Arabidopsis thaliana T1 plants; for Grade 0 (classification and statistics of the grade of pesticide damage; number of plants) / Grade 1 (classification and statistics of the grade of pesticide damage; number of plants) / Grade 2 (classification and statistics of the grade of pesticide damage; number of plants) / Grade 3 (classification and statistics of the grade of pesticide damage; number of plants): 16 plants", "summary_of_the_method": "as §1"}, "[3]": {"test_system": "Arabidopsis thaliana T1 plants", "test": "Isoxaflutole tolerance of transgenic Arabidopsis thaliana T1 plants (spray, bleached leaf area grade, damage score)", "parameters": "Scores (pesticide damage): scale not given here", "conditions": "spray, Arabidopsis thaliana T1 plants; for Classification and statistics of the grade of pesticide damage: Grade 0 (number of plants) / Classification and statistics of the grade of pesticide damage: Grade 1 (number of plants) / Classification and statistics of the grade of pesticide damage: Grade 2 (number of plants) / Classification and statistics of the grade of pesticide damage: Grade 3 (number of plants): 16 plants", "summary_of_the_method": "as §1"}, "[4]": {"conditions": "isoxaflutole 35 g ai/ha (0.5x field concentration)"}, "[5]": {"conditions": "isoxaflutole 70 g ai/ha (1x field concentration)"}}, "data": [{"molecule": "B1", "values": [{"measurement": "Classification and statistics of the grade of pesticide damage: Grade 0", "setting": "[1]; topramezone 25 g ai/ha (1×)", "result": 2}, {"measurement": "Classification and statistics of the grade of pesticide damage: Grade 1", "setting": "[1]; topramezone 25 g ai/ha (1×)", "result": 13}, {"measurement": "Classification and statistics of the grade of pesticide damage: Grade 2", "setting": "[1]; topramezone 25 g ai/ha (1×)", "result": 1}, {"measurement": "Classification and statistics of the grade of pesticide damage: Grade 3", "setting": "[1]; topramezone 25 g ai/ha (1×)", "result": 0}, {"measurement": "Classification and statistics of the grade of pesticide damage: Grade 0", "setting": "[1]; topramezone 100 g ai/ha (4×)", "result": 0}, {"measurement": "Classification and statistics of the grade of pesticide damage: Grade 1", "setting": "[1]; topramezone 100 g ai/ha (4×)", "result": 1}, {"measurement": "Classification and statistics of the grade of pesticide damage: Grade 2", "setting": "[1]; topramezone 100 g ai/ha (4×)", "result": 13}, {"measurement": "Classification and statistics of the grade of pesticide damage: Grade 3", "setting": "[1]; topramezone 100 g ai/ha (4×)", "result": 2}, {"measurement": "Scores", "setting": "[1]; topramezone 25 g ai/ha (1×)", "result": 31}, {"measurement": "Scores", "setting": "[1]; topramezone 100 g ai/ha (4×)", "result": 69}, {"measurement": "Resistance evaluation", "setting": "[1]; topramezone 25 g ai/ha (1×)", "result": "moderately"}, {"measurement": "Resistance evaluation", "setting": "[1]; topramezone 100 g ai/ha (4×)", "result": "non-resistant (non-resistant plants (scores 68-100))"}, {"measurement": "Resistance evaluation", "setting": "[2]; mesotrione 52.5 g ai/ha", "result": "Poorly resistant"}, {"measurement": "Scores", "setting": "[2]; mesotrione 52.5 g ai/ha", "result": 35}, {"measurement": "Grade 0 (classification and statistics of the grade of pesticide damage; number of plants)", "setting": "[2]; mesotrione 52.5 g ai/ha", "result": 1}, {"measurement": "Grade 1 (classification and statistics of the grade of pesticide damage; number of plants)", "setting": "[2]; mesotrione 52.5 g ai/ha", "result": 13}, {"measurement": "Grade 2 (classification and statistics of the grade of pesticide damage; number of plants)", "setting": "[2]; mesotrione 52.5 g ai/ha", "result": 2}, {"measurement": "Grade 3 (classification and statistics of the grade of pesticide damage; number of plants)", "setting": "[2]; mesotrione 52.5 g ai/ha", "result": 0}, {"measurement": "Resistance evaluation", "setting": "[2]; mesotrione 105 g ai/ha", "result": "Non-resistant"}, {"measurement": "Scores", "setting": "[2]; mesotrione 105 g ai/ha", "result": 69}, {"measurement": "Grade 0 (classification and statistics of the grade of pesticide damage; number of plants)", "setting": "[2]; mesotrione 105 g ai/ha", "result": 0}, {"measurement": "Grade 1 (classification and statistics of the grade of pesticide damage; number of plants)", "setting": "[2]; mesotrione 105 g ai/ha", "result": 1}, {"measurement": "Grade 2 (classification and statistics of the grade of pesticide damage; number of plants)", "setting": "[2]; mesotrione 105 g ai/ha", "result": 13}, {"measurement": "Grade 3 (classification and statistics of the grade of pesticide damage; number of plants)", "setting": "[2]; mesotrione 105 g ai/ha", "result": 2}, {"measurement": "Resistance evaluation", "setting": "[3]; [4]", "result": "Moderately"}, {"measurement": "Scores (pesticide damage)", "setting": "[3]; [4]", "result": 33}, {"measurement": "Classification and statistics of the grade of pesticide damage: Grade 0 (number of plants)", "setting": "[3]; [4]", "result": 1}, {"measurement": "Classification and statistics of the grade of pesticide damage: Grade 1 (number of plants)", "setting": "[3]; [4]", "result": 14}, {"measurement": "Classification and statistics of the grade of pesticide damage: Grade 2 (number of plants)", "setting": "[3]; [4]", "result": 1}, {"measurement": "Classification and statistics of the grade of pesticide damage: Grade 3 (number of plants)", "setting": "[3]; [4]", "result": 0}, {"measurement": "Resistance evaluation", "setting": "[3]; [5]", "result": "Poorly"}, {"measurement": "Scores (pesticide damage)", "setting": "[3]; [5]", "result": 65}, {"measurement": "Classification and statistics of the grade of pesticide damage: Grade 0 (number of plants)", "setting": "[3]; [5]", "result": 0}, {"measurement": "Classification and statistics of the grade of pesticide damage: Grade 1 (number of plants)", "setting": "[3]; [5]", "result": 3}, {"measurement": "Classification and statistics of the grade of pesticide damage: Grade 2 (number of plants)", "setting": "[3]; [5]", "result": 11}, {"measurement": "Classification and statistics of the grade of pesticide damage: Grade 3 (number of plants)", "setting": "[3]; [5]", "result": 2}]}]}
